Holding throughout (conditions): both partners purified
In one assay the target is G3BP1 NTF2 domain (human, UniProt Q13283 11-133).
Another assay has as its target T1, G3BP2 NTF2 domain (human, UniProt Q9UN86 11-133).
T1 sequence (looked up): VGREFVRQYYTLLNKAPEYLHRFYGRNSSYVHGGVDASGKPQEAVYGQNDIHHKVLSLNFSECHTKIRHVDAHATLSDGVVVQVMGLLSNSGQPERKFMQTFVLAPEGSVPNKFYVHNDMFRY

Assay [1] concerns the target T2, Radixin FERM domain (human, UniProt P35241 5-295).
T2 construct: also called RDX
T2 sequence (P35241 5-295): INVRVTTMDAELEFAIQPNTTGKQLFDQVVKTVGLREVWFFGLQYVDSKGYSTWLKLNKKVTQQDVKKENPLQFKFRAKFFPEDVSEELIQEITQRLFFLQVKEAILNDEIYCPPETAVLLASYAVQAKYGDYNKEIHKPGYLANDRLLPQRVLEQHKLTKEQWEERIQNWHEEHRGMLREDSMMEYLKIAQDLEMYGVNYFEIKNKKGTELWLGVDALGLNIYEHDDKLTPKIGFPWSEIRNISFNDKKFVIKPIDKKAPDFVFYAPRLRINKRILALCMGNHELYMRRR

Assay [2] deals with Ezrin FERM domain (human, UniProt P15311 2-296).
Target sequence in this assay (P15311 2-296): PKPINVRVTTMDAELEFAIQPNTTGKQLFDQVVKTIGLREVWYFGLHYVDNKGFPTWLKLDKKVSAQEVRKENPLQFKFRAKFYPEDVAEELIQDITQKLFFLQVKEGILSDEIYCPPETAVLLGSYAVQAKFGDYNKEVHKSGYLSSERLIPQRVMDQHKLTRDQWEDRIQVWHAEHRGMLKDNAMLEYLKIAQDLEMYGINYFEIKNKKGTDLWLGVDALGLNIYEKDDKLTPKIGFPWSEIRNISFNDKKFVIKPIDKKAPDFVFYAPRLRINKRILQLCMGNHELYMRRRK
For assay [3], the target named is T3, G3BP2 NTF2 domain, His-GST-tagged (human, UniProt Q9UN86 11-133).
T3 sequence (looked up): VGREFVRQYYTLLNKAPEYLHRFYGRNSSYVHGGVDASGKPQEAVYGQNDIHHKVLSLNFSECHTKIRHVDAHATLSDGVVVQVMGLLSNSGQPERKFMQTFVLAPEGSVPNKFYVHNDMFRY

For assay [4], the target named is G3BP1 NTF2 domain, His-GST-tagged (human, UniProt Q13283 11-133).
Sequence of G3BP1 NTF2 domain, His-GST-tagged (Q13283 11-133): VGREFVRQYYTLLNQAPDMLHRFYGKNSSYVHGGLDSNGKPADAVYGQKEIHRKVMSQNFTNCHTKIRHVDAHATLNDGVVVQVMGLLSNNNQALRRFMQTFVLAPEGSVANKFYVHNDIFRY
The target of the next assay is USP7 MATH domain (human, UniProt Q93009 68-195).
Sequence of USP7 MATH domain (Q93009 68-195): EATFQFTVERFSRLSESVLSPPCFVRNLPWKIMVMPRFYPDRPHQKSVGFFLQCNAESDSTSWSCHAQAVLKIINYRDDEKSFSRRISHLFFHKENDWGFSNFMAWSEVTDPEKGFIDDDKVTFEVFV
Assay [5] addresses T4, Radixin FERM domain (human, UniProt P35241 5-295).
T4 construct: also called RDX; RDX FERM
T4 sequence (P35241 5-295): as the sequence (P35241 5-295) above

For assay [6], the target named is T5, Ezrin FERM domain (human, UniProt P15311 2-296).
T5 construct: also called EZR FERM
T5 sequence (P15311 2-296): as the sequence (P15311 2-296) above

This note sets out measurements from PMC8605023 (Nature Communications, 2021).

Like-named read-outs stand apart in the source and are kept apart here. Ends that are not written are not given here. * marks the point of attachment. FITC = O=C1OC2(c3ccc(O)cc3Oc3cc(O)ccc32)c2ccc(NC(=S)*)cc21

Broadly, the IC50 is the concentration at which inhibition is half-maximal. The low end stands for inhibition by little substance, the high end for a need for much substance. By Ki is commonly meant a dissociation constant, usually derived from enzyme kinetics or from competition with a known ligand. Read a low Ki as a stronger hold on the target. Broadly, the Kd is a measure of binding affinity in units of concentration. High values mean weaker binding, low ones tighter binding.

Sequence of G3BP1 NTF2 domain (Q13283 11-133): as the sequence (Q13283 11-133) above

In the assay with G3BP1 NTF2 domain, APRAVTFGDNNDNNTY [N peptide 6-20 (Mers1)] came in with an IC50 of 130 µM and a Ki of 51 µM. Moreover, the 50% inhibitory concentration (IC50) with G3BP2 NTF2 domain was 80 µM.

With {FITC}-YYSVNTFKEHHSTPTI [FITC-Kirrel3 peptide 668-683], the affinity in the assay with Radixin FERM domain [1], expressed as Kd, was 0.485 µM.

In the assay with G3BP1 NTF2 domain, QGLPLEFGASAETVRY [NSP3 peptide 958-972 (Sars-CoV)] showed a half-inhibitory concentration (IC50) of 320 µM and an inhibition constant (Ki) of 119 µM. In the assay with G3BP2 NTF2 domain, this molecule showed an IC50 of 130 µM and an inhibition constant Ki of 47 µM.

Turning to VDTSNSFEVLAVEDTQY [NSP3 peptide 1996-2011 (Sars-CoV)], in the assay with Radixin FERM domain [1], the IC50 came to 200 µM and the Ki came out at 56.2 µM. In the assay with Ezrin FERM domain [2], the IC50 was 200 µM and affinity was put at a Ki of 218 µM.

As to {FITC}-APRITFGGPSDS [N FITC-APRITFGGPSDS], the Kd in assay [3] is 2.1 ± 0.1 µM; in assay [4], 3.2 ± 0.1 µM.

In the assay with USP7 MATH domain, {FITC}-DYSQPSTSSSIIY (also called MDM2 probe peptide) [MDM2 FITC-DYSQPSTSSSIIY] gave a Kd of 0.49 ± 0.06 µM.

Molecule AQMQGPYNFIQDSMLD [CAPRIN1 peptide 364-379] registered an IC50 with G3BP2 NTF2 domain of 29 µM.

As for PSKLPTFGAPEQLVDY [TRIM25 peptide 400-414], in the assay with G3BP1 NTF2 domain, half-maximal inhibition (IC50) required 120 µM and affinity was put at a Ki of 46 µM. Further, in the assay with G3BP2 NTF2 domain, the IC50 amounted to 53 µM and the inhibition constant (Ki) is 17 µM.

The molecule APRITFGGPTDSTDNY [N peptide 13-27 (Sars-CoV)] showed a half-inhibitory concentration (IC50) with G3BP1 NTF2 domain of 10 µM.

As to {FITC}-YYSVNTFKEHHSTPTI (also called Kirrel probe peptide) [Kirrel FITC-YYSVNTFKEHHSTPTI], the dissociation constant (Kd) with Radixin FERM domain [5] was 0.485 ± 0.003 µM; with Ezrin FERM domain [6] it was 1.4 ± 0.1 µM.

As to PVPPIEFGVSPKDSDY [PRRC2B peptide 1780-1794], in the assay with G3BP2 NTF2 domain, the concentration for half-maximal inhibition (IC50) was 53 µM and the affinity, expressed as Ki, was 19 µM.

In the assay with G3BP2 NTF2 domain, ESLPFSFGTLSSWELE [DDIT3 peptide 4-19] registered an IC50 of 30 µM and a Ki of 12 µM.

NLQFGALQFGSEPVY [UBAP2L peptide 515-528] registered a half-inhibitory concentration (IC50) with G3BP1 NTF2 domain of 104 µM. In the assay with G3BP2 NTF2 domain, this molecule had an IC50 of 79 µM and a Ki of 32 µM.
